Measurements published in the Human Domainome abundance scans (Beltran et al. 2025).

B1: Zinc finger homeobox protein 3, residues 2147 to 2202; numbered along this chain, Q15911 (parent)
chain: RPRTRITDDQLRVLRQYFDINNSPSEEQIKEMADKSGLPQKVIKHWFRNTLFKERQ

Variants of: B1
Experiment: abundance fitness (aPCA) (normalised: wild type 0, dead -1); higher = more abundant; growth selection in yeast, the domain comes from the species named
Conditions: Homo sapiens

Abundance fitness of substitutions, site by site:
M32: Q -0.774; E -0.987; F -0.383; Y -0.317; N -1.08; P -1.15; R -1.18; I -0.191; A -0.338; T -0.584; S -0.882; K -1.03; C -0.407; L -0.181; V -0.164; D -0.466
K30: I -0.133; M -0.107; P -0.679; H -0.161; C -0.217; A -0.006; W -0.537; L -0.239; N -0.637; S -0.205; G -0.188; F -0.264; T -0.061; D -0.155; Q -0.323; R -0.193
Q28: V -0.064; Y -0.385; N -0.171; M -0.168; W -0.642; R -0.221
G37: A -0.176; M -0.341; N -0.124; T -0.342; D -0.103; R -0.071; H -0.361; S -0.151; Y -0.424; K -0.048; C -0.037; I -0.762; F -0.504; L -0.278; Q -0.245; V -0.427; W -0.535; E -0.155
D34: G -0.011; S -0.002; T 0.053; H 0.061; P -0.582; N 0.082; I -0.088; E 0.207; F 0.013; Q -0.112; R -0.086; M -0.097; K 0.02; C -0.039; V -0.063; Y -0.253; L -0.123; W -0.318; A 0.071
L38: E -0.706; C -0.143; D -1.02; F -0.762
I29: P -0.838; R -0.507; L 0.09; D -1.17; A -0.476; H -0.282; G -0.827; Y -0.189; N -0.44; T -0.109; Q -0.225; M -0.008; W -0.387; C -0.279; K -0.634; S -0.491; E -0.334
S36: T 0.127; V -0.031; G -0.449; M -0.157; P -0.853; Y -0.178; C -0.156; W -0.182; L 0.019; D -0.669; K -0.706; R -0.828; I 0.078; H -0.057; N 0.018; A 0.045; F -0.099; E -0.14
E31: H -0.168; C -0.213; D 0.047; N -0.399; G -0.316; P -1.03; F -0.375; R -0.282; T -0.011; L -0.259; S -0.196; Q -0.507; Y -0.448; K -0.017; V -0.079; I -0.252; W -0.404; A -0.151; M -0.133
K35: P -0.998; N -0.138; E -0.168; M -0.216; A -0.279; R -0.175; Y -0.357; F -0.336; G -0.402; D -0.297; C -0.382; I -0.329; L -0.163; W -0.346; Q 0.014; T -0.189; H -0.536; S -0.222
A33: G -0.212; H 0.254; Y -0.299; R -0.163; K -0.357; S -0.054; C -0.158; L -0.511; V -0.186; M -0.083; E 0.038; D -0.879; N -0.21; W -0.556; P -0.908; Q -0.185
